Measured values: the supplement of paper PMC10065799, “High-throughput profiling of sequence recognition by tyrosine kinases and SH2 domains using bacterial peptide display” (eLife, 2023)

Legend:
[1] = test system: Fer (mouse); experiment: phosphorylation enrichment, bacterial display (enrichment ratio); higher = better substrate or ligand; peptides without Tyr show the background
[2] = molecular target: EPHB2 (UniProt P29323); experiment: as above
[3] = test system: AncSZ; experiment: as above
[4] = test system: c-Src; experiment: as above
[5] = molecular target: Hck (UniProt P08631); experiment: as above
Hck, sequence (P08631 whole entry, looked up): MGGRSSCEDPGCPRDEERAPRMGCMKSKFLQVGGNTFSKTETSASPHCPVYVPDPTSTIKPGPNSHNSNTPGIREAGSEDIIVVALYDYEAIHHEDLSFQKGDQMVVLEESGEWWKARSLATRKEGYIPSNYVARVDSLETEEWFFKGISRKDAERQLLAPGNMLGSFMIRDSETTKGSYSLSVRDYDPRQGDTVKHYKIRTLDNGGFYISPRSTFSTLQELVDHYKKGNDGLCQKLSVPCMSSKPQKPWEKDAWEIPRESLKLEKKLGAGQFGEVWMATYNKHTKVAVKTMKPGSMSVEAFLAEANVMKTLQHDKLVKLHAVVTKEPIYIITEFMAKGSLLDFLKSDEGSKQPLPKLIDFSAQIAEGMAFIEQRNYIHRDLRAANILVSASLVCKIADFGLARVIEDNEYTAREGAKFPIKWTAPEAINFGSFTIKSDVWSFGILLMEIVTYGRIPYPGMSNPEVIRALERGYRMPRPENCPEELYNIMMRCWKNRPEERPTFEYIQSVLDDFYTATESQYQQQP

[6] = molecular target: FGFR1 (UniProt P11362); experiment: as above
FGFR1, sequence (P11362 whole entry, looked up): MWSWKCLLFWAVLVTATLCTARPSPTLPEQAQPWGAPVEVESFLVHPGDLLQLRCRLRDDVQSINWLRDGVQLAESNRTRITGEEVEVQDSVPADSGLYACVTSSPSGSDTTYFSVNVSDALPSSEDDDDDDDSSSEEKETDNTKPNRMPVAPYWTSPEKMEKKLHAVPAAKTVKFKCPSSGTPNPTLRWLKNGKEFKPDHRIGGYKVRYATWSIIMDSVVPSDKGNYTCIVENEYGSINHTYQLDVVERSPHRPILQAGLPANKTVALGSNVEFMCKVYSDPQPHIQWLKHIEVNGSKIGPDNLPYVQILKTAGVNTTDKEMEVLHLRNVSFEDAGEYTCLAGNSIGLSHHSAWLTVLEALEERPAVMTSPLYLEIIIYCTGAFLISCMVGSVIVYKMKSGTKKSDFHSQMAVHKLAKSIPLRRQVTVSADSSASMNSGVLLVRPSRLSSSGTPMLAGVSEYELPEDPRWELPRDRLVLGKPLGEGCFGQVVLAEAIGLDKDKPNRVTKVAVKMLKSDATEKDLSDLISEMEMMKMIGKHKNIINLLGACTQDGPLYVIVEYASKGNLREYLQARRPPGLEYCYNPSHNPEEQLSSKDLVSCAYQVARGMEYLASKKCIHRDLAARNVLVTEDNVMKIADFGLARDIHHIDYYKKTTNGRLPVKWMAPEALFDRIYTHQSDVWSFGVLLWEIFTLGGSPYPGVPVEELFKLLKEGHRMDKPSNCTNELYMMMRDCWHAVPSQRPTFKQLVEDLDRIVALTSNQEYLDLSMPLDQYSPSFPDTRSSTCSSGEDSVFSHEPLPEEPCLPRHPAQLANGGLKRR

[7] = molecular target: Jak2 (UniProt O60674); experiment: as above
[8] = molecular target: Fyn (UniProt P06241); experiment: as above
[9] = molecular target: MERTK (UniProt Q12866); experiment: as above
MERTK, sequence (Q12866 whole entry, looked up): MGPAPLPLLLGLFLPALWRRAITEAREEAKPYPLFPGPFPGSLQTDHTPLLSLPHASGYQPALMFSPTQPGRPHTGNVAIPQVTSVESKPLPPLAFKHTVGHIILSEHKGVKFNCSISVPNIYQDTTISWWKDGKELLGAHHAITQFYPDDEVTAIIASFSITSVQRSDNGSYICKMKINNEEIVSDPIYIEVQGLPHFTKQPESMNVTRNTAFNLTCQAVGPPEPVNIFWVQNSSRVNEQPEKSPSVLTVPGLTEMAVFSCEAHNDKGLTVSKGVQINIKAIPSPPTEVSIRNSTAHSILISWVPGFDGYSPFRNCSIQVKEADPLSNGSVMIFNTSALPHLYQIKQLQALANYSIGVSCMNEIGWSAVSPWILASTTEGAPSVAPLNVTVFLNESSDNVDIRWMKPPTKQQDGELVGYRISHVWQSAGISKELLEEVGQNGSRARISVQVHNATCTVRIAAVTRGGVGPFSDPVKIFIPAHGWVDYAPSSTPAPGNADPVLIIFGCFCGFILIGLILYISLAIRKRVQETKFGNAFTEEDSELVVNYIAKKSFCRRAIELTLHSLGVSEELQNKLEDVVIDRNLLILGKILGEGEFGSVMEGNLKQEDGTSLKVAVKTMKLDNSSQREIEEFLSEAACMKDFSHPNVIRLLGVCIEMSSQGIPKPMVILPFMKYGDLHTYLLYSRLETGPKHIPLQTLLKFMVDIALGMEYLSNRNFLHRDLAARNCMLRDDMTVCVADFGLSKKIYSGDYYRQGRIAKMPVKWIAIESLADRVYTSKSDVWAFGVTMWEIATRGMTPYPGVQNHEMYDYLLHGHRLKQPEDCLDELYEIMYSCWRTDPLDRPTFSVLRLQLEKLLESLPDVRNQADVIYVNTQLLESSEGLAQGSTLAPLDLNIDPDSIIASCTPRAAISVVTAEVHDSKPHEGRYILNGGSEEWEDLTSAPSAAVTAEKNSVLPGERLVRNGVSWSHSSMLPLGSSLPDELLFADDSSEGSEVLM

[10] = test system: c-Abl (mouse); experiment: as above
[11] = molecular target: EPHB1 (UniProt P54762); experiment: as above
[12] = molecular target: Fes (UniProt P07332); experiment: as above
Fes, sequence (P07332 whole entry, looked up): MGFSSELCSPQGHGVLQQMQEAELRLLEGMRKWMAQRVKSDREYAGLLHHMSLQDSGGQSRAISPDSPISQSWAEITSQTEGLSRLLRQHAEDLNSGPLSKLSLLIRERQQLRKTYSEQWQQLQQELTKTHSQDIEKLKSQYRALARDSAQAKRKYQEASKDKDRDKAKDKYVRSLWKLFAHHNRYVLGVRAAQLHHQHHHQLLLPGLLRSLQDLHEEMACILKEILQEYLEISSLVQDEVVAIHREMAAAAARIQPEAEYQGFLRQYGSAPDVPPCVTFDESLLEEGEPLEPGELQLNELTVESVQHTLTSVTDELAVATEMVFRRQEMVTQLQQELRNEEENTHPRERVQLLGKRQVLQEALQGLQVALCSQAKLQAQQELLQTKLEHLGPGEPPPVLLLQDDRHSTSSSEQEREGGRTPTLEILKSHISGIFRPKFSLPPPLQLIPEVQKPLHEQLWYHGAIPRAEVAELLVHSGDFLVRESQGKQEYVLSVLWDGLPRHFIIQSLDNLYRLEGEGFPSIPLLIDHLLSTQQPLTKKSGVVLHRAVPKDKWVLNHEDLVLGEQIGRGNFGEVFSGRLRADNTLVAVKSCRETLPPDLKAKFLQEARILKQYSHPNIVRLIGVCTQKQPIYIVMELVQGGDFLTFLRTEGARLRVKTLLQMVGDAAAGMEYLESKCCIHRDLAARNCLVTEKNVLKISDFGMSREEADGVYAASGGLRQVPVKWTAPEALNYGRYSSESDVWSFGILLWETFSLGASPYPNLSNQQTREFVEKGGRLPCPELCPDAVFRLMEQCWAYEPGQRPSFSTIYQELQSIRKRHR

[13] = molecular target: FGFR3 (UniProt P22607); experiment: as above
FGFR3, sequence (P22607 whole entry, looked up): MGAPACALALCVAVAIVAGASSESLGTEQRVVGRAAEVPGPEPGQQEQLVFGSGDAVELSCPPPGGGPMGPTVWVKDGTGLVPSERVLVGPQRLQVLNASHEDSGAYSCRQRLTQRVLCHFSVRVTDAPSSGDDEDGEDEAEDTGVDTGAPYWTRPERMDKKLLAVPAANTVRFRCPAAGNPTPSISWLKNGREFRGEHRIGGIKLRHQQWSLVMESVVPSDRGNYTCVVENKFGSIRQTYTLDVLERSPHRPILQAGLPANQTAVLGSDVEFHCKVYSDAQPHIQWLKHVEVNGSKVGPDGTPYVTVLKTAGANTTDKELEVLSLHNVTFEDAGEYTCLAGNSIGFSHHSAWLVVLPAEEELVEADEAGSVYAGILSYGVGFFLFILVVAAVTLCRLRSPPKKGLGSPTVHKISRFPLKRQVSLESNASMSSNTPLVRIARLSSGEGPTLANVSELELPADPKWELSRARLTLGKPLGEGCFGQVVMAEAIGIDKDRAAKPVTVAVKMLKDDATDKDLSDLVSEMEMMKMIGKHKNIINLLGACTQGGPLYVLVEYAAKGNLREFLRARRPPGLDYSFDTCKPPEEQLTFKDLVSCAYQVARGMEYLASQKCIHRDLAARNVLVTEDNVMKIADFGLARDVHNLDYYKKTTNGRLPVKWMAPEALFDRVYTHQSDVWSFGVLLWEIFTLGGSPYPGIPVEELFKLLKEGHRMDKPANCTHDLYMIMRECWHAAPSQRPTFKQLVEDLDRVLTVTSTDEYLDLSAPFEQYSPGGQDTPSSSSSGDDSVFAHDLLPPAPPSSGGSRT

[14] = molecular target: SHP2-C SH2; experiment: SH2 binding enrichment of the phosphorylated peptide, bacterial display (enrichment ratio); higher = better substrate or ligand; peptides without Tyr show the background
[15] = molecular target: c-Src SH2; experiment: as above
[16] = molecular target: Grb2 SH2 (UniProt P62993); experiment: as above
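Throughout, for SH2 binding enrichment of the phosphorylated peptide, bacterial display: peptide library displayed on the E. coli surface as eCPX fusions, selected cells deep-sequenced, score is each peptide's frequency after selection divided by its frequency in the input.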
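Throughout, for phosphorylation enrichment, bacterial display: 11-residue human phosphosite peptides and single-mutation variants displayed on the E. coli surface, counted by deep sequencing, each peptide's frequency after selection divided by its frequency in the unselected input library; frequency after pTyr selection over input frequency; kinase dosed for 20-30% of maximal phosphorylation in three min.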

EPHB2, sequence (P29323 whole entry, looked up): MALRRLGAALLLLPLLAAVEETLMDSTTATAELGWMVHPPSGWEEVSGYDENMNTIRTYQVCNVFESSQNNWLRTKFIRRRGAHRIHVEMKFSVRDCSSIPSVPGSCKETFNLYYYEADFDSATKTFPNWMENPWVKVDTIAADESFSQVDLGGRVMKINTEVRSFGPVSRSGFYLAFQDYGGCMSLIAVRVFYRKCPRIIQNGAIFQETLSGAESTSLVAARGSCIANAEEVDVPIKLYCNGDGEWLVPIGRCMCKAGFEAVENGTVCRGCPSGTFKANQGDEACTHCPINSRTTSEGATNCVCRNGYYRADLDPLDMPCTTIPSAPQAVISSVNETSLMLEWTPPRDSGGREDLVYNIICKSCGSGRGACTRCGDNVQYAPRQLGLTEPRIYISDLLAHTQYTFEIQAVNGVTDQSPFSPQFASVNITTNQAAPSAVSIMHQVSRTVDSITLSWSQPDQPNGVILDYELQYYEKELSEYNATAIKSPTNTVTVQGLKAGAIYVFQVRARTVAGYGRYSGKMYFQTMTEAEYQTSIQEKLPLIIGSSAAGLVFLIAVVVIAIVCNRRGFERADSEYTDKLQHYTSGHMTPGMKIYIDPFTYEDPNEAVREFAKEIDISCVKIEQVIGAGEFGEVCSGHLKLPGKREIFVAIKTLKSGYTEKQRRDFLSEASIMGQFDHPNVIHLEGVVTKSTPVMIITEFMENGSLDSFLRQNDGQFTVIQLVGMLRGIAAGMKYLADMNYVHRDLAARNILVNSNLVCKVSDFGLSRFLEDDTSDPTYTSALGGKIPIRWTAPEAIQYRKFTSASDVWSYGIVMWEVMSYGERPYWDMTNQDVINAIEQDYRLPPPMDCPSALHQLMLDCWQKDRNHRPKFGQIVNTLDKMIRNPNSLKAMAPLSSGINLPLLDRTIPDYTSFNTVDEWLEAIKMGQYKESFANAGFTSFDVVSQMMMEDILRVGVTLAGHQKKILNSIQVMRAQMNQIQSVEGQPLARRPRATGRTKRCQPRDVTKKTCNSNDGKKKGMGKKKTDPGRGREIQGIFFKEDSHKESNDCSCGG

SH2 binding enrichment [14]	SH2 binding enrichment [15]	SH2 binding enrichment [16]	Sequence	phosphorylation enrichment [1]	phosphorylation enrichment [2]	phosphorylation enrichment [3]	phosphorylation enrichment [4]	phosphorylation enrichment [5]	phosphorylation enrichment [6]	phosphorylation enrichment [7]	phosphorylation enrichment [8]	phosphorylation enrichment [9]	phosphorylation enrichment [10]	phosphorylation enrichment [11]	phosphorylation enrichment [12]	phosphorylation enrichment [13]
1.02	0.933	1.08	YPKARYRWLVL [APTX_Y214_H215R]	0.456	0.553	0.786	0.399	0.422	0.611	0.6	0.464	0.478	0.499	0.434	0.787	0.492
0.658	0.582	0.551	YSMGCYEISLG [HMGCL_Y198]	2.77	1.18	2.12	2.35	1.22	0.69	1.38	2.15	2.66	1.08	1.56	1.47	0.817
0.683	1.05	0.907	YSNVLYRPRGA [TMIGD2_Y197]	4.97	0.6	0.923	0.558	0.651	0.784	0.596	0.615	2.23	0.692	1.34	0.753	0.614
4.56	0.682	0.717	YSNVLYRPRGP [TMIGD2_Y197_A202P]	1.83	0.576	0.796	0.421	0.69	0.685	0.501	0.501	0.856	0.461	0.492	0.656	0.525
0.902	0.538	0.836	YTGSTYRVGDT [FN1_Y106_N104S]	0.405	0.453	0.72	0.48	0.529	0.726	0.715	0.464	0.355	0.595	0.422	0.748	0.58
0.738	0.608	0.735	YVPSNYVAEDR [FRK_Y104_I100V]	0.497	0.424	0.886	0.392	0.382	0.441	0.655	0.411	0.414	0.584	0.53	0.754	0.632

Second part, the sequence before the results:

Sequence	SH2 binding enrichment [14]	SH2 binding enrichment [15]	SH2 binding enrichment [16]	phosphorylation enrichment [1]	phosphorylation enrichment [2]	phosphorylation enrichment [3]	phosphorylation enrichment [4]	phosphorylation enrichment [5]	phosphorylation enrichment [6]	phosphorylation enrichment [7]	phosphorylation enrichment [8]	phosphorylation enrichment [9]	phosphorylation enrichment [10]	phosphorylation enrichment [11]	phosphorylation enrichment [12]	phosphorylation enrichment [13]
YLRTGYSIPYG [TGM1_Y370_V372I]	2.11	9.77	1.01	0.384	0.461	0.777	0.457	0.39	0.554	0.804	0.375	1.21	0.702	0.451	0.677	0.574
YNDSTYNQQLI [ZPLD1_Y198]	0.371	0.568	0.784	0.491	0.465	0.801	0.51	0.506	0.495	0.612	0.479	0.435	0.533	0.521	0.738	0.471
YRDALYKSMVD [PHEX_Y250_F252S]	0.666	0.457	0.804	0.421	0.805	0.757	0.449	0.525	0.458	0.717	0.495	0.4	0.592	0.564	0.856	0.608
YRIGPYQPNVP [MATR3_Y784]	0.883	0.77	0.765	0.5	0.504	0.685	0.402	0.486	0.769	0.44	0.505	0.358	0.501	0.565	0.736	0.712
YRKNIYNVKST [SYNE2_Y575]	0.581	0.422	0.753	0.425	0.423	0.488	0.474	0.324	0.384	0.37	0.458	0.354	0.405	0.337	0.47	0.48
YRQNVYIPGSN [PCDHGA1_Y895]	0.661	0.43	0.829	0.405	0.429	0.564	0.454	0.435	0.427	0.576	0.435	0.424	0.531	0.421	0.626	0.519
YTFTSYYMHWV [IGHV1-46_Y51]	1.1	0.613	0.978	1.78	1.27	1.64	0.952	1.3	3.64	3.85	0.771	4.16	1.06	1.84	1.71	2.89
YYHCTYKKRMI [CLEC12A_Y242]	0.966	1.11	1.25	0.558	0.601	1.37	0.599	0.78	4.79	1.29	0.59	1.48	0.994	0.525	1.21	3.12
